Target: integrins on T cells
Experiment: flow cytometry on cells
Settings: read off a plot

Substance: S-RBD protein with C-terminal human Fc-tag (receptor-binding domain of SARS-CoV-2 S protein) D405E
- response (parent: est. 21): 5 MFI
- response (parent: est. 36): 6.5 MFI

Substance: S-RBD protein with C-terminal human Fc-tag (receptor-binding domain of SARS-CoV-2 S protein) D442E
- response (parent: est. 21): 8 MFI
- response (parent: est. 36): 9 MFI

Substance: S-RBD protein with C-terminal human Fc-tag (receptor-binding domain of SARS-CoV-2 S protein) D586E
- response (parent: est. 21): 2 MFI
- response (parent: est. 36): 2.5 MFI

Source: paper PMC9969015
